# Target: TubY C-terminal domain (BcYCΔ; residues 107-182) of pBc10987 from Bacillus cereus (Bacillus cereus (plasmid pBc10987))
# Test: crystal structure; Se-substituted BcYCΔ at 1.4 mM in 10 mM Tris pH 8.0, 0.1 M NaCl, 3 mM DTT; sitting drop, 20 °C, 0.1 M HEPES pH 7.5, 0.2 M MgCl2, 30% PEG400; 2.6 Å; four monomers in the asymmetric unit
substance,measurement,value
TubY C-terminal domain (BcYCΔ; residues 107-182) of pBc10987 from Bacillus cereus (domain or fragment),stoichiometry N,4
